Here are results for two molecules from patent US20180000963A1 (HELIX BIOPHARMA, published 2018).

Where “and” joins values, the source holds several entries; their conditions need not be identical. Identical values can stand only once.

B1: AFAIKL2 antibody (single-domain camelid antibody fragment) (VHH)
VHH: DVQLQASGGGVVQPGGSLRLSCAAHDPIFDKNLMGWGRQAPGKQREYVATISGSGGTNYASSVEGRFTISRDNAKKTVYLQMNDLKPEDTAVYYCNSAFAIWGQGTQVTVSS
notes: Expressed in E. coli BL21 (DE3) pT7-7; also called AFAIKL2-tag; native single domain antibody
B2: CEACAM6 (carcinoembryonic antigen-related cell adhesion molecule 6) on the surface of human tumor cell lines (receptor)
chain: KLTIESTPFNVAEGKEVLLLAHNLPQNRIGYSWYKGERVDGNSLIVGYVIGTQQATPGPAYSGRETIYPNASLLIQNVTQNDTGFYTLQVIKSDLVNEEATGQFHVYPELPKPSISSNNSNPVEDKDAVAFTCEPEVQNTTYLWWVNGQSLPVSPRLQLSNGNMTLTLLSVKRNDAGSYECEIQNPASANRSDPVTLNVLYGPDVPTISPSKANYRPGENLNLSCHAASNPPAQYSWFINGTFQQSTQELFIPNITVNNSGSYMCQAHNSATGLNRTTVTMITVSG
notes: whole, on cells; also called CEACAM6 antigen; NCA

Assay [1] deals with B2. Description: cell-based ECL competition; unlabelled competitor against L-DOS47-tag (1 µg/mL) on BxPC-3 cells.
Assay [2] concerns the target T1, DOS47 (Jack bean urease, unconjugated) (Jack bean (Canavalia ensiformis), UniProt P07374 1-840).
T1 construct: Purified from jack bean; hexamer of six identical subunits; also called HPU; high purity urease
Description: whole-cell binding assay (ammonia read-out) on BxPC-3, Capan-1, ZR-75-30, LS174T and MDA-MB231 cells.

The target of assay [3] is T2, L-DOS47 (anti-CEACAM6-urease conjugate); AFAIKL2 antibody conjugated to Jack bean urease through the SIAB … (Jack bean (Canavalia ensiformis), UniProt P07374 1-840, primary amines linked through the SIAB linkage to urease cysteines); activation sites Lys76, Met1 (N-terminal amine), Lys44, Lys32; cysteine thiols linked through the SIAB linkage to AFAIKL2; …).
T2 construct: Chemical conjugate, not a fusion; Hexameric urease (six ~91 kDa subunits) carries 0-4 AFAIKL2 per subunit; In the ECL assays it was labelled with ruthenium-NHS-ester (Sulfo-Tag); also called antibody-urease conjugate; AFAIKL2-urease
T2 sequence (P07374 whole entry, chain 1 of 2, the tested form may be a part): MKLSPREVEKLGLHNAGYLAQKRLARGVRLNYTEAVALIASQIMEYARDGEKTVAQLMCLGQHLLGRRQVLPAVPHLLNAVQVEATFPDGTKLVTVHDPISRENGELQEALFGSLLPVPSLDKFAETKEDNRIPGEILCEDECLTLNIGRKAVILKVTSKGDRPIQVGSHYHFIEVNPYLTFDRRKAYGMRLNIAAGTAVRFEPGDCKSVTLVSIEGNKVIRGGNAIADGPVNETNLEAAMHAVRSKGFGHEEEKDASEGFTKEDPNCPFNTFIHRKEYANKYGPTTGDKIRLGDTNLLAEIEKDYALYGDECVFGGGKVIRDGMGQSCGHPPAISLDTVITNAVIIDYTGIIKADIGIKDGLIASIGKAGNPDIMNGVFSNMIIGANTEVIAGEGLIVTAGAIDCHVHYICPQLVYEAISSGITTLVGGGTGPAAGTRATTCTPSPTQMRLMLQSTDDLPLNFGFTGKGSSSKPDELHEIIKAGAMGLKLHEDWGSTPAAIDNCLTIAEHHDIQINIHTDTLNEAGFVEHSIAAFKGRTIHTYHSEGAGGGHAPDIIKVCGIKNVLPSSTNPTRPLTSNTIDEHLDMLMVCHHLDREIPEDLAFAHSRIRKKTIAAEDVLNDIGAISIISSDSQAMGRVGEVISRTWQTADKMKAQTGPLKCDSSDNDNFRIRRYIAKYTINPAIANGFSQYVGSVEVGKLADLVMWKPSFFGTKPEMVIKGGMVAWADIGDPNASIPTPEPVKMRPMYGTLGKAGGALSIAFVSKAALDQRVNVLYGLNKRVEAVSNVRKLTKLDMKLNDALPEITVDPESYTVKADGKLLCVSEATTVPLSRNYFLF
T2 sequence (VHH, as listed by the source limits assumed, chain 2 of 2): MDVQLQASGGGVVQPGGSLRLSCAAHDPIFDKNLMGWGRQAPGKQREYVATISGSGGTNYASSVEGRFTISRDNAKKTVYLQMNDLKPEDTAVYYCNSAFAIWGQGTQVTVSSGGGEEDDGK
Description: whole-cell binding assay, ZR-75-30 cells.

T1 sequence (P07374 whole entry): as the sequence (P07374 whole entry, chain 1 of 2, the tested form may be a part) above

As to B1, the IC50 in assay [1] was ~20 µg/mL and ~1.55 µM.

B2: the figures for the binding result in assay [2] and in assay [3] were “no binding” and “binds”, respectively.
